Assay results taken from article PMC12133307, “Structure, kinetics, and mechanism of Pseudomonas putida sulfoquinovose dehydrogenase, the first enzyme in the sulfoglycolytic Entner-Doudoroff pathway” (Biochemical Journal, 2025).

Target: the molecule itself
Test: SEC-MALS; SEC-MALLS, Superdex S200 10/300 GL, 100 mM Tris pH 7.5, 300 mM NaCl, 100 µl at ~2 mg/ml, 0.5 ml/min, 20 °C

B1: Pseudomonas putida SQ dehydrogenase (PpSQDH) (enzyme, Pseudomonas putida SQ1)
chain: MNRHTDTHYPSLADKVVLISGGASGIGRAFVEAFVAQGSRVAFLDLDAEAGQGLAHALGANSLFLPCDVRDIERLKACVAEVERTWGAVDVLINNAARDDRHALADVSVEYWDERMQTNLRHAFFAAQAVAPGMARRGSGAIINMGSISWMRGRPGMVCYTTAKAALNGMTRTLARELGGQGIRINSLVPGAIRTERQDAMWAADPAGLEAASQAFIDQQMLKFRLDASDCARLALFLASDDSRGCTGQNFVVDAGLSIQ
notes: SQ dehydrogenase PpSQ1_00090 of Pseudomonas putida SQ1; Gln260 is the C-terminal residue; no step that removes the tag is described; A second preparation for kinetics was made in 'NEB T7 Express' E. coli (HisTrap, Superdex 75); also called sulfoquinovose dehydrogenase; PpSQ1_00090; source: E. coli BL21(DE3), purified (Ni-NTA IMAC, SEC)
- stoichiometry N: 4
